{
  "source": "paper PMC10009755",
  "about": "(Journal of Medicinal Chemistry, 2023)",
  "binders": {"B1": {"name": "human USP21 (Q9UK80, 209-563) (domain or fragment, UniProt Q9UK80 209-563, looked up)", "chain": "SGHVGLRNLGNTCFLNAVLQCLSSTRPLRDFCLRRDFRQEVPGGGRAQELTEAFADVIGALWHPDSCEAVNPTRFRAVFQKYVPSFSGYSQQDAQEFLKLLMERLHLEINRRGRRAPPILANGPVPSPPRRGGALLEEPELSDDDRANLMWKRYLEREDSKIVDLFVGQLKSCLKCQACGYRSTTFEVFCDLSLPIPKKGFAGGKVSLRDCFNLFTKEEELESENAPVCDRCRQKTRSTKKLTVQRFPRILVLHLNRFSASRGSIKKSSVGVDFPLQRLSLGDFASDKAGSPVYQLYALCNHSGSVHYGHYTALCRCQTGWHVYNDSRVSPVSENQVASSEGYVLFYQLMQEPPR", "notes": "cDNA optimized for expression in E. coli; The His tag is thrombin-cleavable; also called recombinant USP21; source: E. coli BL21(DE3), purified (Ni-NTA, MonoS cation exchange, SEC)"}},
  "molecular_target": "T1, wild-type ubiquitin (UniProt P0CG48 1-76)",
  "T1 construct": "ubiquitin, the cut product of the ubiquitin precursors; called 'wild-type ubiquitin'",
  "assay": "SPR; USP21 immobilised by amine coupling on a CM5 chip; Biacore S200, A-B-A injection; 1 uM compound 18 as analyte A, then ubiquitin titrated in 1:2 dilutions from 25 uM; 15 °C",
  "conditions": "both partners purified",
  "data": [
    {"binder": "B1", "values": [
      {"measurement": "binding result", "value": "binds"}
    ]}
  ]
}
